# Results taken from patent US20090118195A1, “Molecules Which Promote Hematopoiesis” (priority 2004, published 2009).
# *1 amine or outer side, *2 acyl side, *3 side chain or, on linkers, in order; H or OH if unused. Primed or numbered codes have the meaning given here. Where no end group is shown, it is not given here. [ ]: non-standard residue; d: D form. Als″ = residue of 5-aminolevulinic acid, O=C(CCC(=O)[*:2])CN[*:1]
# T1: EPO receptor (on TF-1 cells) (UniProt P19235 25-508, limits assumed)
# T1 sequence (looked up): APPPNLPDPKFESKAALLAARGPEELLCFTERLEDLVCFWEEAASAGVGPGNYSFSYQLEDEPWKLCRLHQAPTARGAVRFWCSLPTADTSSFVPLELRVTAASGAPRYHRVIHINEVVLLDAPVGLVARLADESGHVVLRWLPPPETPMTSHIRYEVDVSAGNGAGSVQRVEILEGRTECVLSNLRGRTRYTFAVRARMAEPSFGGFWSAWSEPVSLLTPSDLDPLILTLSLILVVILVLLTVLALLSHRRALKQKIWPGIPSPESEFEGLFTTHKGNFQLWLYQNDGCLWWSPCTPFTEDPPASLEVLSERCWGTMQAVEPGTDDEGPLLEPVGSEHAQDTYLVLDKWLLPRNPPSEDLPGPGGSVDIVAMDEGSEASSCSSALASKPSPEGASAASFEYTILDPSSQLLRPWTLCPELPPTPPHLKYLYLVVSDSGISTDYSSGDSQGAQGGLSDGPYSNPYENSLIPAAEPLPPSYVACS
# Target: T1, EPO receptor (on TF-1 cells)
# Experiment: cell-based or functional assay
# Settings: not given
row,"EC50, TF-1 cell proliferation (MTT assay) [µM]",Molecule
1,5,GGTYSCHF[Als″]LTWVCKKQGG (cysteine pairing not given here) [SEQ ID NO 8: GGTYSCHF-(Als)-LTWVCKKQGG]
2,5.16,GGTYSCHFGRLTWVCKPQGG [SEQ ID NO 5: GGTYSCHFGRLTWVCKPQGG]
3,4.97,GGTYSCHFGRLTWVCKKQGG [SEQ ID NO 6: GGTYSCHFGRLTWVCKKQGG]
4,3.28,GGTYSCHFGKLTWVCKKQGG [SEQ ID NO 2: GGTYSCHFGKLTWVCKKQGG]
5,5.26,GGTYSCHF[Als″]LTWVCKPQGG (cysteine pairing not given here) [SEQ ID NO 7: GGTYSCHF-(Als)-LTWVCKPQGG]
6,4.66,GGTYSCHFGKLTWVCKPQGG [SEQ ID NO 4: GGTYSCHFGKLTWVCKPQGG]
7,2.52,GGTYSCHFGPLTWVCKKQGG
8,5.04,GGTYSCHFAKLTWVCKKQGG

# Test system: TF-1 cells
# Experiment: Proliferation assay with TF-1 cells by MTT (monomers)
# Type: cell-based
# Settings: MTT-assay data, dose-response calculated with GraphPad
# Description: Proliferation assay with TF-1 cells by MTT
# TF-1 Cells in logarithmic growth phase (˜2.10^5-1.10^6 cells/ml; RPMI medium; 20% fetal calf serum; supplemented with Penicillin, streptomycin, L-Glutamine; 0.5 ng/ml Interleukin 3) are washed (centrifuge 5 min. 1500 rpm and resuspend in RPMI complete without IL3 at 500.000 cells/ml) and precultured before start of the assay for 24 h without IL-3. At the next day the cells are seeded in 24- or 96-well plates usually using at least 6 concentrations and 4 wells per concentration containing at least 10.000 cells/well per agent to be tested. Each experiment includes controls comprising recombinant EPO as a positive control agent and wells without addition of cytokine as negative control agent. Peptides and EPO-controls are prediluted in medium to the desired concentrations and added to the cells, starting a culture period of […] under standard culture conditions (37° C., 5% carbon dioxide in the gas phase, atmosphere saturated with water). Concentrations always refer to the final concentration of agent in the well during this 4-day culture period.
# At day 4, prior to start of the analysis, a dilution series of a known number of TF-1 cells is prepared in a number of wells (01250015000/10000120000150000 cells/well in 100 μl medium). These wells are treated in the same way as the test wells and later provide a calibration curve from which cell numbers can be determined. Having set up these reference wells, MTS and PMS from the MTT proliferation kit (Promega, CellTiter 96 Aqueous non-radioactive cell proliferation assay) are thawed in a 37° C. waterbath and 100 μl of PMS solution are added to 2 ml of MTS solution. 20 μl of this mixture are added to each well of the assay plates and incubated at 37° C. for 3-4 h. 25 μl of 10% sodium dodecylsulfate in water are added to each well prior to measurement E492 in an ELISA Reader.
# Using graphical evaluations as shown in FIGS. 17 and 18 based on calculations of the dose-response relationship using the program GraphPad the following EC50 values were determined on the basis of MTT-assay data: […]
Molecule,EC50 [µM],EC50 values
GGTYSCHF-(Als)-LTWVCKKQGG [SEQ ID NO 8],5,
GGTYSCHF-(Als)-LTWVCKPQGG [SEQ ID NO 7],5.26,
GGTYSCHFGGLTWVCKPQGG,,no activity
